In article PMC9716568, “The structure of His-tagged Geobacillus stearothermophilus purine nucleoside phosphorylase reveals a ‘spanner in the works’” (Acta Crystallographica. Section F, Structural Biology …, 2022):

Target: the molecule itself
Experiment: crystal structure; His-GsePNPase crystallized without ligands, 25 mg/ml in 50 mM HEPES pH 7.6, 100 mM NaCl, sitting drop, 291 K; three chains in the asymmetric unit, the hexamer generated by crystallographic symmetry; 1.72 Å

B1: N-terminally His-tagged purine nucleoside phosphorylase from Geobacillus stearothermophilus (enzyme)
chain: MHHHHHHSSGLVPRGSGMKETAAAKFERQHMDSPDLGTGSENLYFQGAMMSVHIGAKAGEIAERILLPGDPLRAKYIAETFLEGAVCYNEVRGMLGFTGTYKGERISVQGTGMGVPSISIYVNELIQSYGVKTLIRVGTCGAIQPDVRVRDVILAMSASTDSNMNRLIFRGRDYAPTADFHLLRTAYEVGVEKGLALKVGNVFTADMFYNDEPNWETWARYGVLAVEMETAALYTLAAKFGCRALSVLTVSDHILTGEETTAEERQMTFNEMIEVALEAAIRNGA
notes: hexameric purine nucleoside phosphorylase of Geobacillus stearothermophilus, KEGG GT50_19015, the open reading frame; the printed residue numbers (His4, Arg43, Arg87, Asp203) count from the first Met of this part; The whole construct as printed has 285 residues; The tag was not cleaved in the crystallized protein; also called His-GsePNPase; GsePNPase; source: E. coli BL21 (DE3), purified (IMAC on …)
stoichiometry N: 6
